Consider one substance from PMC6131520.

The test has as its target 3D8 IgG-N434D mutant (mouse | human).

Chain of 3D8 IgG-N434D mutant (mouse | human) (heavy, as listed by the source, chain 1 of 2): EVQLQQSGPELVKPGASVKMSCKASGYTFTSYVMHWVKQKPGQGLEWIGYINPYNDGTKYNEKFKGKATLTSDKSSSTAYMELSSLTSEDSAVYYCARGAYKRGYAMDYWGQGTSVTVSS
Chain of 3D8 IgG-N434D mutant (mouse | human) (light, as listed by the source, chain 2 of 2): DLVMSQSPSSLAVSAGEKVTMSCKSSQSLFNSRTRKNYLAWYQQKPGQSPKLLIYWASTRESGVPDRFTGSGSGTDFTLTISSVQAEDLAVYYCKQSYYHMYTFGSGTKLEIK

“tripartite motif-containing 21 (TRIM21) (from UniProt P19474 1-475) (natural protein)” showed a secretion of IL-8 and TNF-α by THP-1 cells treated with 5 μM IgG for 6 h (ELISA), against cells treated with wt 3D8 IgG of 40 % higher.
